From article PMC3265435, “More than just a metabolic regulator - elucidation and validation of new targets of PdhR in Escherichia coli”

Assays:
[1] = molecular target: T1, PdhR (his-tagged) (Escherichia coli, UniProt P0ACL9 1-254); assay: EMSA; 0.1 pmol DNA, 54 pmol PdhR; same binding activity as pdhR site; EMSA as in ref 7; 0.1 pmol of each DNA fragment with 54 pmol PdhR; buffer, salt, pH and temperature not given; details: protein: recombinant; tags: His; chain copies: 2; label: 5'DY682 (strand 1); 5'DY782 (strand 2); blunt
[2] = molecular target: T1, PdhR (his-tagged); assay: EMSA; 0.1 pmol DNA, 54 pmol PdhR; EMSA as in ref 7; 0.1 pmol of each DNA fragment with 54 pmol PdhR; buffer, salt, pH and temperature not given; details: protein: recombinant, tags: His, chain copies: 2, label: 5'DY682 (strand 1), 5'DY782 (strand 2)

T1 sequence (P0ACL9 whole entry, the tested form may be a part): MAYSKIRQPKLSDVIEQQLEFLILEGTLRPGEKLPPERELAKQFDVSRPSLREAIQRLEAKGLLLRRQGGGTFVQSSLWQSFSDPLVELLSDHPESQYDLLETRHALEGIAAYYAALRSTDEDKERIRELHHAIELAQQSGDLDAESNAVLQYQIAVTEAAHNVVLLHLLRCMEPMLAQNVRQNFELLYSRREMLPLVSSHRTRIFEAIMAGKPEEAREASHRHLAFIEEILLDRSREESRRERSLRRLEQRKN

B1: GlcDop (dsDNA)
DNA 1: CTATCTCTTTAGCTACCGGTCAGACCATTTTTTTTCCAGCTCT
DNA 2: AGAGCTGGAAAAAAAATGGTCTGACCGGTAGCTAAAGAGATAG
- binding result [1]: binds

B2: PdhRop (dsDNA)
DNA 1: GCCGAAGTCAATTGGTCTTACCAATTTCATGTCTGTG
DNA 2: CACAGACATGAAATTGGAAGACCAATTGACTTCGGC
- binding result ([2]; printed strands not exact complements: S23 lacks one T opposite an A of S22 (37/36 nt; possible misprint)): binds

B3: MetBop (dsDNA)
DNA 1: AACGGCTATTTGGGATTTGCTCAATCTATACGCAAAGAAGTTT
DNA 2: AAACTTCTTTGCGTATAGATTGAGCAAATCCCAAATAGCCGTT
- binding result ([2]; blunt): no binding
